{
  "source": "paper PMC9854251",
  "substrate": "Nc1ncnc2c1ncn2[C@@H]1O[C@H](COP(=O)(O)NCCc2c[nH]c3ccccc23)[C@@H](O)[C@H]1O",
  "assay": "Steady-state kinetics assay",
  "assay_type": "biochemical, human",
  "details": "other: steady-state 25 °C, pH 7.2",
  "data": [
    {"protein": "hHINT1 Q62A (Homo sapiens; Q62A) (protein) MADEIAKAQVARPGGDTIFGKIIRKEIPAKIIFEDDRCLAFHDISPQAPTHFLVIPKKHISAISVAEDDDESLLGHLMIVGKKCAADLGLNKGYRMVVNEGSDGGQSVYHVHLHVLGGRQMHWPPG", "values": [
      {"measurement": "Km", "setting": "hHINT1 Q62A", "value": "0.015 ± 0.003", "unit": "µM"},
      {"measurement": "kcat", "setting": "hHINT1 Q62A", "value": "0.45 ± 0.02", "unit": "s⁻¹"},
      {"measurement": "kcat/Km", "setting": "hHINT1 Q62A", "value": "2.8e+07 ± 4e+06", "unit": "M⁻¹ s⁻¹"}
    ]},
    {"protein": "hHINT1 Q62R (Homo sapiens; Q62R) (protein) MADEIAKAQVARPGGDTIFGKIIRKEIPAKIIFEDDRCLAFHDISPQAPTHFLVIPKKHISRISVAEDDDESLLGHLMIVGKKCAADLGLNKGYRMVVNEGSDGGQSVYHVHLHVLGGRQMHWPPG", "values": [
      {"measurement": "Km", "setting": "hHINT1 Q62R", "value": "0.136 ± 0.03", "unit": "µM"},
      {"measurement": "kcat", "setting": "hHINT1 Q62R", "value": "1.4 ± 0.09", "unit": "s⁻¹"},
      {"measurement": "kcat/Km", "setting": "hHINT1 Q62R", "value": "1.1e+07 ± 2.4e+06", "unit": "M⁻¹ s⁻¹"}
    ]},
    {"protein": "hHINT2 WT (Homo sapiens) (protein) GNEVAKAQQATPGGAAPTIFSRILDKSLPADILYEDQQCLVFRDVAPQAPVHFLVIPKKPIPRISQAEEEDQQLLGHLLLVAKQTAKAEGLGDGYRLVINDGKLGAQSVYHLHIHVLGGRQLQWPPG", "values": [
      {"measurement": "Km", "setting": "hHINT2 WT", "value": "0.91 ± 0.098", "unit": "µM"},
      {"measurement": "kcat", "setting": "hHINT2 WT", "value": "5.77 ± 0.34", "unit": "s⁻¹"},
      {"measurement": "kcat/Km", "setting": "hHINT2 WT", "value": "6.3e+06 ± 1e+06", "unit": "M⁻¹ s⁻¹"}
    ]},
    {"protein": "hHINT2 R99A (Homo sapiens; R99A) (protein) GNEVAKAQQATPGGAAPTIFSRILDKSLPADILYEDQQCLVFRDVAPQAPVHFLVIPKKPIPAISQAEEEDQQLLGHLLLVAKQTAKAEGLGDGYRLVINDGKLGAQSVYHLHIHVLGGRQLQWPPG", "values": [
      {"measurement": "Km", "setting": "hHINT2 R99A", "value": "0.683 ± 0.042", "unit": "µM"},
      {"measurement": "kcat", "setting": "hHINT2 R99A", "value": "2.65 ± 0.19", "unit": "s⁻¹"},
      {"measurement": "kcat/Km", "setting": "hHINT2 R99A", "value": "3.88e+06 ± 810000", "unit": "M⁻¹ s⁻¹"}
    ]},
    {"protein": "hHINT2 R99Q (Homo sapiens; R99Q) (protein) GNEVAKAQQATPGGAAPTIFSRILDKSLPADILYEDQQCLVFRDVAPQAPVHFLVIPKKPIPQISQAEEEDQQLLGHLLLVAKQTAKAEGLGDGYRLVINDGKLGAQSVYHLHIHVLGGRQLQWPPG", "values": [
      {"measurement": "Km", "setting": "hHINT2 R99Q", "value": "0.84 ± 0.155", "unit": "µM"},
      {"measurement": "kcat", "setting": "hHINT2 R99Q", "value": "6.01 ± 0.26", "unit": "s⁻¹"},
      {"measurement": "kcat/Km", "setting": "hHINT2 R99Q", "value": "7.2e+06 ± 1.1e+06", "unit": "M⁻¹ s⁻¹"}
    ]}
  ]
}
